Among the data in patent US20230414780A1 (VECT HORUS, published 2023) are Kd, koff and kon values, retold here.

Assay [1] concerns the target T1, rhesus monkey transferrin receptor (rhTfR) fused to EGFP, on CHO cells (rhesus monkey).
T1 construct: whole, on cells; also called rhesus monkey TfR
Description: apparent Kd, flow cytometry, CHO cells. In outline:
(§1)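 CHO cells expressing TfR-EGFP fusions, blocked in PBS/BSA 2%, then incubated with increasing VHH concentrations for 1 hr at 4° C. Bound VHH detected via anti-6His antibody and Alexa647 secondary, cells PFA-fixed, read by flow cytometry. Apparent Kd from nonlinear fit.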
(A flow cytometer gives signals particle by particle.)

Assay [2] concerns the target T2, mouse transferrin receptor (mTfR) fused to EGFP, on CHO cells (mouse, UniProt Q62351 1-763).
T2 construct: whole, on cells; also called mouse TfR; CHO-mTfR-EGFP; not shown: EGFP
In words: apparent Kd, flow cytometry, CHO cells. The procedure, abridged: as §1

The target in assay [3] is T3, human transferrin receptor (hTfR) fused to EGFP, on CHO cells (human, UniProt P02786 1-760).
T3 construct: whole, on cells; also called human TfR; CHO-hTfR-EGFP; not shown: EGFP from pEGFP-C1 vector, fused to the N-terminal (intracellular) end of hTfR
Description: apparent Kd, flow cytometry, CHO cells. The procedure, abridged:
as §1

Assay [4] concerns the target T4, human TfR ectodomain fused to a mouse IgG1 Fc fragment (human, UniProt P02786 89-760).
T4 construct: extracellular domain; ectodomain fused to the N-terminal end of the Fc, made in-house; not shown: mouse IgG1 Fc fragment
In words: SPR, kinetic. The protocol:
(§2) Binding properties of some VHHs were also evaluated using Surface Plasmon Resonance (SPR) experiments. The human, mouse and rhesus monkey TfR (having respectively GeneBank number NM_003234.2, NM_011638, NC_041755.1) ectodomains were fused to the N-terminal end of a mouse IgG1 Fc fragment and the recombinant proteins were produced and purified in-house. Interaction of VHHs with the receptors was tested using a Biacore T200 (GE Healthcare). Receptors were immobilized on an HC 1500M or a CM5 sensor chip (Xantec) either directly or on an anti-mouse IgG previously immobilized. VHHs were injected over flowcell by using the single-cycle kinetic or the multiple-cycle kinetic methods.
A general note: Surface plasmon resonance follows binding to a sensor surface in real time, without labels.

In assay [5] the target is T5, rhesus monkey TfR ectodomain fused to a mouse IgG1 Fc fragment (rhesus monkey, UniProt I0FKY7 89-760).
T5 construct: extracellular domain; not shown: mouse IgG1 Fc fragment
Description: SPR, kinetic. The procedure:
as §2

Assay [6] concerns the target T4, human TfR ectodomain fused to a mouse …. Description: SPR, at equilibrium. The protocol:
as §2

Assay [7] addresses T5, rhesus monkey TfR ectodomain fused to a …. Description: SPR, at equilibrium. The procedure: as §2

Broadly, the koff is the first-order rate constant of dissociation. The term kon denotes the rate constant with which the complex forms.

T3 sequence (P02786 whole entry, the tested form may be a part): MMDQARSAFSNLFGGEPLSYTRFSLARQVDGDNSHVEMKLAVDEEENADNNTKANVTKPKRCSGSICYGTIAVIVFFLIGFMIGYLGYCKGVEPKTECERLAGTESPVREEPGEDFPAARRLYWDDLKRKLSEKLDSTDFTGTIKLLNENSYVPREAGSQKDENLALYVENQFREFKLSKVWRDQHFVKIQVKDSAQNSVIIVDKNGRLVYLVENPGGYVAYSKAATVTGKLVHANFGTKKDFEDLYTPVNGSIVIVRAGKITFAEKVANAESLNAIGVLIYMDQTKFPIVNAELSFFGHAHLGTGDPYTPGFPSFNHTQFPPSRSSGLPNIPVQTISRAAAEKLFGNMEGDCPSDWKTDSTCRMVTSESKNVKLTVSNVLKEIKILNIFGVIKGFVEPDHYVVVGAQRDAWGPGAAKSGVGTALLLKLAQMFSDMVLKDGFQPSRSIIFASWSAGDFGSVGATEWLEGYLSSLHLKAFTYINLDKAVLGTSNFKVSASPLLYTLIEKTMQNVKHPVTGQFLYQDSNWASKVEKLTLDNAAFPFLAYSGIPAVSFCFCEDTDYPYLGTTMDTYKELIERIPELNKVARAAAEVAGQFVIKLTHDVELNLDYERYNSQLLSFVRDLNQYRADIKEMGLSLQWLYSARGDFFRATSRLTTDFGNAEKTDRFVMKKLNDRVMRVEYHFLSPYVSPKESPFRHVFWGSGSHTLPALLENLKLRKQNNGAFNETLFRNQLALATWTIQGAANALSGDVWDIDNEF
T2 sequence (Q62351 whole entry, the tested form may be a part): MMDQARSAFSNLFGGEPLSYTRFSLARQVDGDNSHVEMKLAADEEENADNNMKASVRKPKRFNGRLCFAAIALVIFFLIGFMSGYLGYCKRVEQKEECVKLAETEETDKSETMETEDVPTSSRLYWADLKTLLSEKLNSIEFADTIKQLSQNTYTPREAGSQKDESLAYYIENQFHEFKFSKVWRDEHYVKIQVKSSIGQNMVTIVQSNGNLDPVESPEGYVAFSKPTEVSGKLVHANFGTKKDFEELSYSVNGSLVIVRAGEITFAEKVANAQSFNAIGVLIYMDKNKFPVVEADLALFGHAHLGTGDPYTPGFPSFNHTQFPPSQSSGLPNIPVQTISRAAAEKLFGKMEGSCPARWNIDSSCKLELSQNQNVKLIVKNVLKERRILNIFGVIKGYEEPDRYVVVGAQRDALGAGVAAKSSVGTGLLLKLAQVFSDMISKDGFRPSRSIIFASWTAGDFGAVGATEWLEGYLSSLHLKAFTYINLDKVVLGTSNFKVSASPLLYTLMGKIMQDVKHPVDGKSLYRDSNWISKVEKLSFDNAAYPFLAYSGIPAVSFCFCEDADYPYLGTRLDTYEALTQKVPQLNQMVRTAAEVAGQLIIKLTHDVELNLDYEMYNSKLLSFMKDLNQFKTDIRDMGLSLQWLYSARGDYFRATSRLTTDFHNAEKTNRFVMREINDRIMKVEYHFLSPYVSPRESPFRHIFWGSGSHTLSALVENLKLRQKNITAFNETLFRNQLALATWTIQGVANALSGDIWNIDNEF
T4 sequence (P02786 89-760): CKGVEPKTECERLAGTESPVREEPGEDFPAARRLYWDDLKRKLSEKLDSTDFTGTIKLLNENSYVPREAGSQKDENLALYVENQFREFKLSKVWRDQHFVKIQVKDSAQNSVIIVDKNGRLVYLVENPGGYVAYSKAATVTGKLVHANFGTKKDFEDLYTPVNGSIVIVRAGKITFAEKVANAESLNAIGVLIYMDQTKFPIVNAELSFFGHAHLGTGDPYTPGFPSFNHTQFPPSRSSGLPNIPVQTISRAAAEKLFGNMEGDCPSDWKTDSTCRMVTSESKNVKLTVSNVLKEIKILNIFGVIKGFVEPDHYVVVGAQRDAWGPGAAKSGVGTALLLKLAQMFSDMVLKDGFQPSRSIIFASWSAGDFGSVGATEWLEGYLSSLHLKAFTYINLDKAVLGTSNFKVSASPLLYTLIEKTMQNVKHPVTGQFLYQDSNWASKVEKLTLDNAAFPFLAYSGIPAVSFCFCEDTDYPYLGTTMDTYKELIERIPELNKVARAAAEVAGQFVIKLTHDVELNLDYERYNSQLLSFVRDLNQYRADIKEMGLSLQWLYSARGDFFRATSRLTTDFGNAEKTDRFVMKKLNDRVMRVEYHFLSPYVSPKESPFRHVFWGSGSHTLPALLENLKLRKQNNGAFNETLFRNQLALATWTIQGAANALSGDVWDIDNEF

B1: B8^V16 (VHH)
VHH: EVQLVESGGGVVQPGGSLRLSCAASGEIFSINFMRWYRQAPGKQREQVAGFTRDGSTNYPDSAKGRFTISRDNAKNTVYLQIDSLKPEDTAVYYCYMLDTWGQGTQVTVSS
For the molecule B1, the Kd in assay [1] was found to be 307 nM; in assay [2] it was 3.6 nM; in assay [3], 6.2 nM; in assay [4], 12.8 nM; in assay [5] it was 135 nM; in assay [6], 76.3 nM. Moreover, the Kd in assay [7] came out at 222 nM. Besides, the koff in assay [4] came out at 0.0133 s⁻¹; in assay [5], 0.0438 s⁻¹. The kon in assay [4] was determined as 1.03e+06 M⁻¹ s⁻¹; in assay [5], 325000 M⁻¹ s⁻¹.

B2: B8^V31 (VHH)
VHH: EVQLVESGGGVVQPGGSLRLSCAASGEIKSINFMRWYRQAPGKQREWVAGFTRDGSTNYPDSAKGRFTISRDNAKNTVYLQIDSLKPEDTAVYYCYMLDTWGQGTQVTVSS
In the case of B2, the Kd was 20 nM in assay [1]; 1690 nM in assay [2]; 14 nM in assay [3]; 60.8 nM in assay [4]; 32.1 nM in assay [5]; 63.8 nM in assay [6]. In assay [7], this molecule came in with a Kd of 35.4 nM. The results for the koff in assay [4] and in assay [5] were 0.0221 s⁻¹ and 0.0509 s⁻¹, respectively. Also, the kon was found to be 364000 M⁻¹ s⁻¹ in assay [4] and 1.59e+06 M⁻¹ s⁻¹ in assay [5].

B3: B8^V35 (VHH)
VHH: EVQLVESGGGVVQPGGSLRLSCAASGEIRSINFMRWYRQAPGKQREWVAGFTRDGSLNYPDSAKGRFTISRDNAKNTVYLQIDSLKPEDTAVYYCYMLDTWGKGTQVTVSS
In the case of B3, the Kd in assay [1] was found to be 23 nM; in assay [2] it was 513 nM; in assay [3] it was 7.1 nM; in assay [4], 20.6 nM; in assay [5], 33.7 nM; in assay [6], 23.9 nM. The molecule also yielded a Kd in assay [7] of 34.4 nM. For the same molecule, the koff came out at 0.0143 s⁻¹ in assay [4] and 0.0303 s⁻¹ in assay [5]. For the same molecule, the kon in assay [4] stood at 698000 M⁻¹ s⁻¹; in assay [5], 898000 M⁻¹ s⁻¹.

B4: B8^V38 (VHH)
VHH: EVQLVESGGGVVQPGGSLRLSCAASGEIRSINFMRWYRQAPGKQREWVAGFTRTGSTNYPDSAKGRFTISRDNAKNTVYLQIDSLKPEDTAVYYCYMLDTWGQGTQVTVSS
With B4, the Kd was 123 nM in assay [1]; 1780 nM in assay [2]; 23 nM in assay [3]; 32.2 nM in assay [4]; 46.3 nM in assay [5]; 35.8 nM in assay [6]. For the same molecule, in assay [7], the Kd is 55.4 nM. Further, the koff turned out to be 0.0192 s⁻¹ in assay [4] and 0.0255 s⁻¹ in assay [5]. For the same molecule, the kon was 596000 M⁻¹ s⁻¹ in assay [4] and 549000 M⁻¹ s⁻¹ in assay [5].

B5: B8^V29 (VHH)
VHH: EVQLVESGGGVVQPGGSLRLSCAASGEIFSINFMRWYRQAPGKQREWVAGFTRDGSTNYPDSAKGRFTISRDNAKNTVYLQIDSLKPEDTAVYYCYMADTWGQGTQVTVSS
For the molecule B5, the Kd in assay [1] stood at 72 nM; in assay [2], 1670 nM; in assay [3], 9 nM; in assay [4] it was 44 nM; in assay [5] it was 202 nM; in assay [6], 21.8 nM. Moreover, in assay [7], the Kd is 100 nM. Further, the koff in assay [4] was 0.0169 s⁻¹; in assay [5], 0.0942 s⁻¹. Further, the kon in assay [4] came out at 682000 M⁻¹ s⁻¹; in assay [5], 1.16e+06 M⁻¹ s⁻¹.

B6: B8^V27 (VHH)
VHH: EVQLVESGGGVVQPGGSLRLSCAASGEIFSINFMRWYRQAPGKQREWVAGFTRDGSTVYPDSAKGRFTISRDNAKNTVYLQIDSLKPEDTAVYYCYMLDTWGQGTQVTVSS
B6: the Kd is 16 nM in assay [1]; 760 nM in assay [2]; 6.8 nM in assay [3]; 7.29 nM in assay [4]; 53.8 nM in assay [5]; 3.22 nM in assay [6]. Also, in assay [7], the Kd came to 36.8 nM. Also, the koff in assay [4] stood at 0.00722 s⁻¹; in assay [5], 0.0206 s⁻¹. Moreover, the kon was found to be 1.01e+06 M⁻¹ s⁻¹ in assay [4] and 455000 M⁻¹ s⁻¹ in assay [5].

B7: B8^V32 (VHH)
VHH: EVQLVESGGGVVQPGGSLRLSCAASGEIRSINFMRWYRQAPGKQREWVAGFTRDGSTNYPDSAKGRFTISRDNAKNTVYLQIDSLKPEDTAVYYCYMLDTWGQGTQVTVSS
In the case of B7, the Kd in assay [1] turned out to be 14 nM; in assay [2], 1210 nM; in assay [3] it was 7.1 nM; in assay [4] it was 30.1 nM; in assay [5] it was 32.7 nM; in assay [6] it was 36.5 nM. Further, the Kd in assay [7] was determined as 35.1 nM. In addition, the koff in assay [4] was determined as 0.0126 s⁻¹; in assay [5], 0.0418 s⁻¹. The kon in assay [4] was 420000 M⁻¹ s⁻¹; in assay [5], 1.28e+06 M⁻¹ s⁻¹.

B8: B8^V34 (VHH)
VHH: EVQLVESGGGVVQPGGSLRLSCAASGEIRSINFMRWYRQAPGKQREWVAGFTRDGSTNYPDIAKGRFTISRDNAKNTVYLQIDSLKPEDTAVYYCYMLDTWGQGTQVTVSS
Regarding B8, the Kd in assay [1] worked out at 68 nM; in assay [2] it was 1070 nM; in assay [3] it was 13 nM; in assay [4] it was 33.3 nM; in assay [5], 51.5 nM; in assay [6], 32.4 nM. The molecule also came in with a Kd in assay [7] of 49.4 nM. Further, the koff in assay [4] worked out at 0.0244 s⁻¹; in assay [5], 0.102 s⁻¹. Moreover, the kon in assay [4] was found to be 733000 M⁻¹ s⁻¹; in assay [5] it was 1.97e+06 M⁻¹ s⁻¹.

B9: B8^V39 (VHH)
VHH: EVQLVESGGGVVQPGGSLRLSCAASGEIFKINFMRWYRQAPGKQREWVAGFTRDGSTNYPDSAKGRFTISRDNAKNTVYLQIDSLKPEDTAVYYCYMLDTWGQGTQVTVSS
Turning to B9, the Kd stood at 200 nM in assay [1]; 1290 nM in assay [2]; 16 nM in assay [3]; 39.1 nM in assay [4]; 90.5 nM in assay [5]; 40.3 nM in assay [6]. Also, the Kd in assay [7] came to 93.3 nM. Moreover, the koff in assay [4] was found to be 0.0175 s⁻¹; in assay [5], 0.0327 s⁻¹. The kon in assay [4] came to 448000 M⁻¹ s⁻¹; in assay [5] it was 362000 M⁻¹ s⁻¹.

B10: B8^V37 (VHH)
VHH: EVQLVESGGGVVQPGGSLRLSCAASGEIFSINFMRWYRQAPGKQREWVAGFTRDGSTNYPDSAKGRFTISEDNAKNTVYLQIDSLKPEDTAVYYCYMLRTWGQGTQVTVSS
As for B10, the Kd in assay [1] worked out at 334 nM; in assay [2] it was 582 nM; in assay [3], 97 nM; in assay [4], 70.5 nM; in assay [5], 148 nM; in assay [6], 75.5 nM. This molecule also displayed a Kd in assay [7] of 175 nM. Further, the values for the koff in assay [4] and in assay [5] were 0.0493 s⁻¹ and 0.103 s⁻¹, respectively. The kon in assay [4] was 699000 M⁻¹ s⁻¹; in assay [5] it was 700000 M⁻¹ s⁻¹.

B11: B8^V33 (VHH)
VHH: EVQLVESGGGVVQPGGSLRLSCAASGEIFSINFMRWYRQAPGKQREWVAGFTRDGSTNYPDSAKGRFTISRDNAKNTVYLQIDSLKPEDTAVYYCYMLKTWGQGTQVTVSS
B11: the Kd was 170 nM in assay [1]; 230 nM in assay [2]; 50 nM in assay [3]; 46.2 nM in assay [4]; 73.4 nM in assay [5]; 46.5 nM in assay [6]. The molecule also displayed a Kd in assay [7] of 86 nM. In addition, the koff in assay [4] worked out at 0.0328 s⁻¹; in assay [5], 0.0509 s⁻¹. In addition, the kon in assay [4] worked out at 710000 M⁻¹ s⁻¹; in assay [5], 693000 M⁻¹ s⁻¹.

B12: C5^V32 (VHH)
VHH: EVQLVESGGGVVQPGGSLKLSCVASGTDFSINFIRWYSQAPGKQREFVAGFTATGNTNYADSMKGRLTISRDNTKNAVYLQIDSLKPEDTAVYYCYMLGKWGQGTQVTVSS
B12: the Kd in assay [1] is 653 nM; in assay [2], 1740 nM; in assay [3], 66 nM; in assay [4] it was 35.8 nM; in assay [5] it was 358 nM; in assay [6] it was 38.6 nM. In assay [7], this molecule came in with a Kd of 265 nM. Moreover, the koff in assay [4] turned out to be 0.0247 s⁻¹; in assay [5], 0.266 s⁻¹. Besides, the association rate constant (kon) in assay [4] stood at 692000 M⁻¹ s⁻¹; in assay [5], 745000 M⁻¹ s⁻¹.
